# Results taken from PMC5282582.
# Legend:
# [1] = target: the molecule itself; experiment: SEC-MALS; 100 μl of purified protein injected at 2 mg/ml (low concentration); Superdex 200 10/300 GL, room temperature, 10 mM HEPES pH 7.4, 200 mM NaCl, 5 mM β-ME, 0.4 ml/min
# [2] = target: T1, γ subunit of human NAD-dependent isocitrate dehydrogenase (human, UniProt P51553 40-393); experiment: SDS-PAGE of the co-purified complex; subunits co-expressed in E. coli, purified as a complex by the His6 tag of β or γ (Ni-NTA, TEV cleavage, second Ni-NTA, gel filtration); 12% SDS-PAGE with Coomassie blue staining, intensity of the two bands; conditions: both partners purified
# T1 construct: γ subunit of human NAD-IDH (IDH3G); the N-terminal 39 residues (mitochondrial signal peptide) were removed during construction; a TEV protease site stood between the subunit and the His6 tag; residues of the site may remain after cleavage; also called IDH3G; regulatory subunit; not shown: His6, C-terminal, cleaved
# T1 sequence (looked up): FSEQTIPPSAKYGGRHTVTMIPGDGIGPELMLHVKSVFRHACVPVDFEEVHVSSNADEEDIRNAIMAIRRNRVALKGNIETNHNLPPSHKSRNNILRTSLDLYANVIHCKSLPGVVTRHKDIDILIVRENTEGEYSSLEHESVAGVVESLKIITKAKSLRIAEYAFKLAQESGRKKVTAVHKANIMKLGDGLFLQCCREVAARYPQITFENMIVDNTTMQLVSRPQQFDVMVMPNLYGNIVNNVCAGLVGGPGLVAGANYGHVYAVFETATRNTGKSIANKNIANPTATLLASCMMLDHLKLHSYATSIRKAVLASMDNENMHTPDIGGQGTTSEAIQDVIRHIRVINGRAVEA
# [3] = target: β subunit of human NAD-dependent isocitrate dehydrogenase (human); experiment: as above; conditions: both partners purified
# Sequence of β subunit of human NAD-dependent isocitrate dehydrogenase (human) (chain, as listed by the source): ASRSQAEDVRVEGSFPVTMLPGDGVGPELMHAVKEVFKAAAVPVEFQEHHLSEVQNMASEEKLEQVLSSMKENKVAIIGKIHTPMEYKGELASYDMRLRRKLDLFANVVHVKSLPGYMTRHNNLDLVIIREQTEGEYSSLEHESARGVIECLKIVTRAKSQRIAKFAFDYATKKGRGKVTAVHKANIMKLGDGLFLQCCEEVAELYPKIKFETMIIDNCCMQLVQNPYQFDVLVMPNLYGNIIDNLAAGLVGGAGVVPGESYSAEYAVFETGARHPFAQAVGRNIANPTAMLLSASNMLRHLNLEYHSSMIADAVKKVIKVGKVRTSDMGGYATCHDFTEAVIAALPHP
Binder,stoichiometry N [1],stoichiometry N [2],stoichiometry N [3]
mutant α_(Y126F)βαγ heterotetramer of human NAD-dependent isocitrate dehydrogenase (complex) chain 1: TGGVQTVTLIPGDGIGPEISAAVMKIFDAAKAPIQWEERNVTAIQGPGGKWMIPSEAKESMDKNKMGLKGPLKTPIAAGHPSMNLLLRKTFDLYANVRPCVSIEGYKTPYTDVNIVTIRENTEGEFSGIEHVIVDGVVQSIKLITEGASKRIAEFAFEYARNNHRSNVTAVHKANIMRMSDGLFLQKCREVAESCKDIKFNEMYLDTVCLNMVQDPSQFDVLVMPNLYGDILSDLCAGLIGGLGVTPSGNIGANGVAIFESVHGTAPDIAGKDMANPTALLLSAVMMLRHMGLFDHAARIEAACFATIKDGKSLTKDLGGNAKCSDFTEEICRRVKDLD chain 2: not shown chain 3: TGGVQTVTLIPGDGIGPEISAAVMKIFDAAKAPIQWEERNVTAIQGPGGKWMIPSEAKESMDKNKMGLKGPLKTPIAAGHPSMNLLLRKTFDLYANVRPCVSIEGYKTPYTDVNIVTIRENTEGEYSGIEHVIVDGVVQSIKLITEGASKRIAEFAFEYARNNHRSNVTAVHKANIMRMSDGLFLQKCREVAESCKDIKFNEMYLDTVCLNMVQDPSQFDVLVMPNLYGDILSDLCAGLIGGLGVTPSGNIGANGVAIFESVHGTAPDIAGKDMANPTALLLSAVMMLRHMGLFDHAARIEAACFATIKDGKSLTKDLGGNAKCSDFTEEICRRVKDLD chain 4: FSEQTIPPSAKYGGRHTVTMIPGDGIGPELMLHVKSVFRHACVPVDFEEVHVSSNADEEDIRNAIMAIRRNRVALKGNIETNHNLPPSHKSRNNILRTSLDLYANVIHCKSLPGVVTRHKDIDILIVRENTEGEYSSLEHESVAGVVESLKIITKAKSLRIAEYAFKLAQESGRKKVTAVHKANIMKLGDGLFLQCCREVAARYPQITFENMIVDNTTMQLVSRPQQFDVMVMPNLYGNIVNNVCAGLVGGPGLVAGANYGHVYAVFETATRNTGKSIANKNIANPTATLLASCMMLDHLKLHSYATSIRKAVLASMDNENMHTPDIGGQGTTSEAIQDVIRHIRVINGRAVEA,2,,
mutant αβα_(Y126F)γ heterotetramer of human NAD-dependent isocitrate dehydrogenase (complex) chain 1: TGGVQTVTLIPGDGIGPEISAAVMKIFDAAKAPIQWEERNVTAIQGPGGKWMIPSEAKESMDKNKMGLKGPLKTPIAAGHPSMNLLLRKTFDLYANVRPCVSIEGYKTPYTDVNIVTIRENTEGEYSGIEHVIVDGVVQSIKLITEGASKRIAEFAFEYARNNHRSNVTAVHKANIMRMSDGLFLQKCREVAESCKDIKFNEMYLDTVCLNMVQDPSQFDVLVMPNLYGDILSDLCAGLIGGLGVTPSGNIGANGVAIFESVHGTAPDIAGKDMANPTALLLSAVMMLRHMGLFDHAARIEAACFATIKDGKSLTKDLGGNAKCSDFTEEICRRVKDLD chain 2: not shown chain 3: TGGVQTVTLIPGDGIGPEISAAVMKIFDAAKAPIQWEERNVTAIQGPGGKWMIPSEAKESMDKNKMGLKGPLKTPIAAGHPSMNLLLRKTFDLYANVRPCVSIEGYKTPYTDVNIVTIRENTEGEFSGIEHVIVDGVVQSIKLITEGASKRIAEFAFEYARNNHRSNVTAVHKANIMRMSDGLFLQKCREVAESCKDIKFNEMYLDTVCLNMVQDPSQFDVLVMPNLYGDILSDLCAGLIGGLGVTPSGNIGANGVAIFESVHGTAPDIAGKDMANPTALLLSAVMMLRHMGLFDHAARIEAACFATIKDGKSLTKDLGGNAKCSDFTEEICRRVKDLD chain 4: FSEQTIPPSAKYGGRHTVTMIPGDGIGPELMLHVKSVFRHACVPVDFEEVHVSSNADEEDIRNAIMAIRRNRVALKGNIETNHNLPPSHKSRNNILRTSLDLYANVIHCKSLPGVVTRHKDIDILIVRENTEGEYSSLEHESVAGVVESLKIITKAKSLRIAEYAFKLAQESGRKKVTAVHKANIMKLGDGLFLQCCREVAARYPQITFENMIVDNTTMQLVSRPQQFDVMVMPNLYGNIVNNVCAGLVGGPGLVAGANYGHVYAVFETATRNTGKSIANKNIANPTATLLASCMMLDHLKLHSYATSIRKAVLASMDNENMHTPDIGGQGTTSEAIQDVIRHIRVINGRAVEA,2,,
"α subunit of human NAD-dependent isocitrate dehydrogenase (natural protein, UniProt P50213 28-366, looked up, α subunit of human NAD-IDH (IDH3A); the N-terminal 27 residues (mitochondrial signal peptide) were removed during construction; cloned in the co-expression vector pQlinkN; gene bought from FulenGen in pReceiver-B01/B02; also called IDH3A; catalytic subunit) TGGVQTVTLIPGDGIGPEISAAVMKIFDAAKAPIQWEERNVTAIQGPGGKWMIPSEAKESMDKNKMGLKGPLKTPIAAGHPSMNLLLRKTFDLYANVRPCVSIEGYKTPYTDVNIVTIRENTEGEYSGIEHVIVDGVVQSIKLITEGASKRIAEFAFEYARNNHRSNVTAVHKANIMRMSDGLFLQKCREVAESCKDIKFNEMYLDTVCLNMVQDPSQFDVLVMPNLYGDILSDLCAGLIGGLGVTPSGNIGANGVAIFESVHGTAPDIAGKDMANPTALLLSAVMMLRHMGLFDHAARIEAACFATIKDGKSLTKDLGGNAKCSDFTEEICRRVKDLD",,1,1
